Measured values taken from patent US20250326813A1 (ELPIS BIOPHARMACEUTICALS, published 2025).
Positions count from the first letter of the chain named. Names may count otherwise. Values belong to the binder of their own block, whether it stands above or below them.

Assays:
[1] = target: T1, human IL2Rβ Fc fusion protein (human, UniProt P14784 27-239); experiment: ELISA on coated receptor-Fc, anti-His detection; grade by OD450 (medium: 0.7-1.5)
T1 construct: also called ILR2β; CD122; not shown: Fc part
T1 sequence (looked up): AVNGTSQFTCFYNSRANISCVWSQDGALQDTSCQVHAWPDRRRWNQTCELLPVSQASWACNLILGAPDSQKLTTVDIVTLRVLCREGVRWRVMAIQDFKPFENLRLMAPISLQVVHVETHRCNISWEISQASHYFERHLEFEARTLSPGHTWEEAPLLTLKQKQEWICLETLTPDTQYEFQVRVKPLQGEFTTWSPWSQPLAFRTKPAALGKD
Protocol: (§1) Mammalian cell-produced agonists were characterized for their binding activities to respective IL2Rβ and IL2Rα receptors by ELISA. Briefly, 384 well plate was immobilized with human IL2Rα and IL2Rβ Fc fusion proteins at a final concentration of 2 μg/mL in 1× PBS in total volume of 25 μL per well. The plate was incubated overnight at 4° C. and blocked with 80 μL of superblock per well for 1 hour. The purified clones were added to IL2Rα or IL-2Rβ wells in parallel in duplicates as a titration, with the highest concentration of 1 μM, followed by a 10 point 5× serial dilution of the clones. The binding activity was detected by adding 25 μL of anti-His HRP diluted at 1:5000 in 1× PBST. In between each step, the plate was washed three times with 1× PBST using a plate washer. The plate was then developed with 25 μL of TMB substrate for five minutes and stopped by adding 25 μL of 2N sulfuric acid. The plate was read at OD450 nm Biotek plate reader and the bar graph at 1 μM of IL2 was generated with Prism 8.1 software (FIG. 2).

[2] = target: T2, human IL2Rα Fc fusion protein (human, UniProt P01589 22-213, limits assumed); experiment: as above
T2 construct: also called CD25; not shown: Fc part
T2 sequence (looked up): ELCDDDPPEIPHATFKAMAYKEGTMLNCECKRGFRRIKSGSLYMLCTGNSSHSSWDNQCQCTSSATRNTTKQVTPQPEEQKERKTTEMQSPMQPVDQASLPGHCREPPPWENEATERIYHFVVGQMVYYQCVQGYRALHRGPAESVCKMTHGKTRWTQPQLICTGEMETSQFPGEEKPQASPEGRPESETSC
Protocol: as §1

[3] = target: T2, human IL2Rα Fc fusion protein; experiment: SPR (Biacore T200), receptor captured on Protein A chip, IL2 at 100 nM and 20 nM
Protocol: (§2) The assay was run with Biacore T200 control software version 2.0. For each cycle, 1 μg/mL of human IL2Rβ or IL2Rα was captured for 60 seconds at flow rate of 10 μL/min on flow cell 2 in 1× HBSP buffer on Protein A sensor chip. 100 nM and 20 nM of HIS tag purified engineered IL2 mutant was injected onto both reference flow cell 1 and IL2Rβ or IL2Rα captured flow cell 2 for 150 seconds at flow rate of 30 μL/min followed by washing for 300 seconds. The flow cells were then regenerated with Glycine pH 2 for 60 seconds at a flow rate of 30 μL/mins. The kinetics data was analyzed with Biacore T200 evaluation software 3000. The specific binding response unit was derived from subtraction of binding to reference flow cell 1 from target flow cell 2.

[4] = target: T1, human IL2Rβ Fc fusion protein; experiment: ELISA, single concentration, anti-flag detection, E. coli-produced clone
Protocol: (§3) Supernatants containing engineered IL2 mutants were assessed with sandwich ELISA assay to screen for IL2Rα binding. Briefly, 96-well plate was immobilized with human Fc and human IL2Rα, respectively, at a final concentration of 2 μg/mL in 1× PBS in total volume of 50 μL per well. The plate was incubated overnight at 4° C. followed by blocking with 200 μL of superblock per well for 1 hour. 100 μl of supernatant was added to both Fc and IL2Rα immobilized wells and incubated for 1 hour with shaking. The engineered IL2 mutant binding was detected by adding 50 μL of anti-Flag HRP diluted at 1:5000 in 1× PBST. In between each step, the plate was washed three times with 1× PBST in a plate washer. The plate was then developed with 50 μL of TMB substrate for five minutes and stopped by adding 50 μL of 2N sulfuric acid. The plate was read at OD450 nm using a Biotek plate reader and the binding and selectivity was analyzed.
as §3, with “Single clones were next screened for IL2Rβ binding. IL2Rβ binding screening ELISA was developed for the identification of individual” for “Supernatants containing”, “mutant.” for “mutants were assessed with sandwich ELISA assay to screen for IL2Rα binding.”, “IL2Rβ,” for “IL2Rα,”, “IL2Rβ” for “IL2Rα”
(§4) To further triage, the engineered IL2 clones with unique sequences were produced in E. coli. In short, the glycerol stock of each engineered agonist clone was inoculated into TB medium for overnight growth. The next day, cells from the overnight culture were inoculated into TB medium and grown to a cell density of OD₆₀₀ between 0.6-0.8. IPTG was added to a final concentration of 1 mM to induce the expression during culture at 30° C. overnight. The supernatant was collected by centrifugation.

[5] = target: T2, human IL2Rα Fc fusion protein; experiment: as above
Protocol: as §3
as §3, with “Single clones were next screened for IL2Rβ binding. IL2Rβ binding screening ELISA was developed for the identification of individual” for “Supernatants containing”, “mutant.” for “mutants were assessed with sandwich ELISA assay to screen for IL2Rα binding.”, “IL2Rβ,” for “IL2Rα,”, “IL2Rβ” for “IL2Rα”
as §4

[6] = target: T1, human IL2Rβ Fc fusion protein; experiment: SPR (Biacore T200), receptor captured on Protein A chip
Protocol: as §2

[7] = target: T1, human IL2Rβ Fc fusion protein; experiment: SPR (Biacore T200), receptor captured on Protein A chip, IL2 at 100 nM and 20 nM
Protocol: as §2

[8] = target: T1, human IL2Rβ Fc fusion protein; experiment: ELISA: human IL2Rβ Fc fusion coated at 2 µg/mL, purified His-tagged IL2 titrated from 1 µM in 5x steps, anti-His HRP, OD450
Protocol: as §1

[9] = target: T1, human IL2Rβ Fc fusion protein; experiment: ELISA on coated receptor-Fc, anti-His detection, single point 1 µM
Protocol: Back-mutations were characterized for their binding activities to IL2Rβ and IL2Rα receptors by ELISA. Briefly, 384 well plate was immobilized with human IL2Rα and IL2Rβ Fc fusion proteins at a final concentration of 2 μg/mL in 1× PBS in total volume of 25 μL per well. The plate was incubated overnight at 4° C. and blocked with 80 μL of superblock per well for 1 hour. […] The IL2 mutant binding was detected by adding 25 μL of anti-His HRP diluted at 1:5000 in 1× PBST. In between each step, the plate was washed three times with 1× PBST using a plate washer. […] The plate was then developed with 25 μL of TMB substrate for five minutes and stopped by adding 25 μl of 2N sulfuric acid. The plate was read at OD450 nm Biotek plate reader (Table 6) and the data was analyzed with Prism 8.1 software to generate bar graph (FIG. 5).

OD450 [1]: 0.7 to 1.5 od
OD450 [2]: 0.7 to 1.5 od
B1: EP565, mammalian cell-produced, with F35L, R38D and F42R (ligand)
chain: APASSSTKKTQLQLEHLLLDLQMILNGINNYKNPLLTDMLTRKFYMPKKATELKHLQCLEEELKPLEEVLNLAQSKNFHLRSRQLISNMNGIILKLKGSETTFMCEYADETATIVEFLNRWITFSQSIISTLT
notes: His-Flag tag not in the parts; also called 2021EP22-F10

Kd [3]: 188 nM
OD450 nm [4]: 0.068 OD450
OD450 nm [5]: 0.05 OD450
B2: EP567 (clone 2021EP21-C04), E. coli-produced (ligand)
chain: APASSSTKKTQLQLEHLLLDLQMILNGINNYKNPKLTRMLTFKFYMPKKATELKHLQCLEEELKPLEEVLNLAQSKNFHLSLREPIGNIVTSVRELKGSETTFMCEYADETATIVEFLNRWITFSQSIISTLT
binding result [6]: no binding (tested: Rmax < 5RU; 100 nM and 20 nM)

OD450 nm [4]: 0.105 OD450
OD450 nm [5]: 1.25 OD450
B3: EP568 (clone 2021EP16-H06), E. coli-produced (ligand)
chain: APASSSTKKTQLQLEHLLLDLQMILNGINNYKNPKLTRMLTFKFYMPKKATELKHLQCLEEELKPLEEVLNLAQSKNFHLLAKRTVSNMYVRVEELKGSETTFMCEYADETATIVEFLNRWITFSQSIISTLT
binding result [6]: no binding (tested: Rmax < 5RU; 100 nM and 20 nM)

Kd [7]: 1.03 nM
EC50 (read off the curve) [8]: ~1 nM
Average OD (450 nm) [9]: 1.63 OD450
B4: EP596, IL2Rβ enhanced binding agonist (ligand)
chain: B1 chain with R81T, S82A, Q84D, L85A, S87D, M89I, G91V, I93V, L94Q, K95E
notes: Control in SPR and ELISA
